What all share (assay): SEC-MALS; 100 μl of purified protein injected at 12 mg/ml (high concentration); Superdex 200 10/300 GL, room temperature, 10 mM HEPES pH 7.4, 200 mM NaCl, 5 mM β-ME, 0.4 ml/min
In general terms: SEC sorts molecules by how far they enter the pores of the column.

The target in experiment [1] is mutant α_(Y126F)β heterodimer of human NAD-dependent isocitrate dehydrogenase (human) (UniProt P50213).
The target in experiment [2] is mutant α_(Y126F)γ heterodimer of human NAD-dependent isocitrate dehydrogenase (human) (UniProt P50213).
For experiment [3], the target named is αβ heterodimer of human NAD-dependent isocitrate dehydrogenase (human) (UniProt P50213).
Experiment [4] concerns the target αγ heterodimer of human NAD-dependent isocitrate dehydrogenase (human) (UniProt P50213).

Consider four substances from paper PMC5282582.

Chain of αβ heterodimer of human NAD-dependent isocitrate dehydrogenase (P50213 whole entry, looked up, one chain of several): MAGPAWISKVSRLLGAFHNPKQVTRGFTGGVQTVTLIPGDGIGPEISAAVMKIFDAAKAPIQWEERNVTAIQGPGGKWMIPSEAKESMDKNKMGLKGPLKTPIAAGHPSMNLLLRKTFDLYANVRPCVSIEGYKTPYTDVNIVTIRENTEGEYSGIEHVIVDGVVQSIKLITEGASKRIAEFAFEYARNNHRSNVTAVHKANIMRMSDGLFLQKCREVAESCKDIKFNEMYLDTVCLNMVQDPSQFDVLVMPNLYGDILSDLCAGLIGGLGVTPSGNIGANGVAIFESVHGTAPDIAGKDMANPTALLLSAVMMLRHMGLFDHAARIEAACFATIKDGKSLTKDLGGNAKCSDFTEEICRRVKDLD
Chain of mutant α_(Y126F)β heterodimer of human NAD-dependent isocitrate dehydrogenase (P50213 whole entry, looked up, stated change not applied, one chain of several): as the sequence (P50213 whole entry, looked up, one chain of several) above

In experiment [1], “mutant α_(Y126F)β heterodimer of human NAD-dependent isocitrate dehydrogenase (from UniProt P50213 55-366) (complex)” gave a stoichiometry N of 2. Take “mutant α_(Y126F)γ heterodimer of human NAD-dependent isocitrate dehydrogenase (from UniProt P50213 55-366; P51553 40-393) (complex)”: the stoichiometry N in experiment [2] came to 2. As for “αβ heterodimer of human NAD-dependent isocitrate dehydrogenase (from UniProt P50213 28-366) (complex)”, the stoichiometry N in experiment [3] was 2. Take “αγ heterodimer of human NAD-dependent isocitrate dehydrogenase (from UniProt P50213 28-366; P51553 40-393) (complex)”: the stoichiometry N in experiment [4] stood at 2.

The stoichiometry N is a count of units in the complex or per binding partner.
